Results: the supplement of paper PMC10126150
± gives the standard deviation of the averaged measurements.

test system: ATP; assay: switch fluorescence ratio, 500 uM ATP over buffer (Cy3 cluster intensity, sum of 5 cycles each) (fold (ratio)); higher = stronger signal-on switching upon ATP binding; sequences stand for … in TCGTCGGCAGCGTCAGATGTGTATAAGAGACAGTTTTTTTTTTTTTTTTTTTTTTTTT…TC; conditions: aptamer strand: ATP DNA aptamer (quencher-CACCTGGGGGAGTATTGCGGAGGAAGG + anchor), 100 nM annealed; ATP concentration: 500 uM
Method in brief: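 Five buffer/ATP imaging cycles were run on Cy3-labelled switching-strand clusters on a modified Illumina MiSeq flow-cell, with NaOH stripping and re-annealing between cycles. In each cycle, clusters annealed to 100 nM quencher-labelled ATP aptamer were imaged in selection buffer, then after 15 min with 500 uM ATP at 22 °C. Per cluster, the fluorescence ratio is summed target-cycle over summed buffer-cycle Cy3 intensity, averaged per switch-domain sequence. Only clusters within 100-1000 RFU were kept.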
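Also: ATP exposure 15 min at 22 °C before imaging.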

Row | Sequence | switch fluorescence ratio
1 | CATCTGATGC | 1.08 ± 0.015
2 | CTGCATGGGG | 1.062 ± 0.0025
3 | CATGGATACA | 0.978 ± 0.052
4 | TCTTTGTTG | 1.02 ± 0.02
5 | TCCAGAGATG | 0.997 ± 0.028
6 | AAATGGGAAA | 1.06 ± 0.084
7 | CGGCGAAGTT | 0.9883 ± 0.0046
8 | CGGGAGGTTT | 0.9854 ± 0.0083
9 | GTTTTCTTAG | 0.9737 ± 0.0031
10 | AATAATATTT | 1.01 ± 0.021
11 | GCCAAAGATT | 1 ± 0.029
12 | CAGATATTTC | 1.02 ± 0.021
13 | TAAAGTAAGT | 1.008 ± 0.01
14 | TTACGGTTT | 1 ± 0.025
15 | CAGCATGGGT | 1.025 ± 0.0034
16 | AAAGGAGTA | 1.01 ± 0.037
17 | TTGGAGAGGT | 1.02 ± 0.019
18 | ATATGTATGC | 0.97875 ± 3.4e-05
19 | GGTCCGGAGC | 1.1577 ± 0.00066
20 | TTTTGAAATC | 1.004 ± 0.0061
21 | TCAAGGTGTT | 1.15 ± 0.062
22 | AAGGGGCAAT | 1.01 ± 0.055
23 | TGGGTAGTGC | 0.997 ± 0.029
24 | TAATTAGGGT | 1 ± 0.025
25 | CGTCCATTGA | 1.03 ± 0.019

Row | Sequence | switch fluorescence ratio
26 | CTAATGTGTC | 1.02 ± 0.088
27 | GGTGGTAGGA | 0.98 ± 0.041
28 | GCAAGATCGC | 1.09 ± 0.02
29 | TGGTTTTTAG | 1.05 ± 0.033
30 | CGGGTAAGTG | 0.97 ± 0.014
31 | CCGGGAGGTA | 0.991 ± 0.021
32 | GATTAAAGGA | 1.01 ± 0.011
33 | ATACAAGACT | 1.06 ± 0.03
34 | GACATGGACG | 1.088 ± 0.0062
35 | GTGGTACAGG | 1.02 ± 0.068
36 | CGGTCATTCA | 1.02 ± 0.055
37 | ATATGAAGGA | 0.993 ± 0.013
38 | GTTGGAGGAT | 0.9843 ± 0.0026
39 | GGGTTTCGAA | 0.9702 ± 0.0018
40 | TTGGGGCCAA | 1.01 ± 0.051
41 | GGGGACTCTT | 0.977 ± 0.023
42 | TTTACAGGGA | 1.027 ± 0.0086
43 | GGAGATCAGG | 1.03 ± 0.027
44 | CTCAATAGGG | 1.01 ± 0.038
45 | TTGGGGATCG | 0.983 ± 0.056
46 | GTGTATGGGA | 0.967 ± 0.033
47 | GGGAGTAAGG | 1.024 ± 0.0025
48 | GAACGCGTCC | 1.1 ± 0.015
49 | GAAGGGGTCC | 1 ± 0.042
50 | GGAGTTGCGG | 0.9089 ± 0.0048

Row | Sequence | switch fluorescence ratio
51 | CAGGGGGTCC | 1.01 ± 0.022
52 | GGAGGGACTT | 1.39 ± 0.68
53 | TACAAGCGTA | 0.992 ± 0.014
54 | CGGGGGCCGT | 0.936 ± 0.014
55 | TCCGGGGAGC | 1.06 ± 0.015
56 | GGCCCTAAGT | 0.976 ± 0.026
57 | TTAATGTT | 1.02 ± 0.018
58 | TTTTTACTAA | 1.01 ± 0.011
59 | TTTGATACTG | 1.06 ± 0.11
60 | TACTGGATGA | 0.991 ± 0.029
61 | TTTTATGGTT | 0.997 ± 0.032
62 | TCCTTAACTT | 1.02 ± 0.061
63 | GGACAGGGGG | 0.9633 ± 0.0051
64 | GGGAAACCGG | 1.06 ± 0.018
65 | GTATTTGGGA | 0.991 ± 0.054
66 | TTAAGGGGCA | 1.02 ± 0.035
67 | TAACAGGGGT | 1.31 ± 0.43
68 | ATTTTGTGTT | 0.988 ± 0.022
69 | TAAGATTTTA | 1 ± 0.042
70 | CTGTTCTTTG | 0.982 ± 0.019
71 | GATTCGGGGT | 1 ± 0.017
72 | CGGGGTTGGT | 1.01 ± 0.016
73 | CGCTGGGTTT | 0.976 ± 0.035
74 | AAATTTAATC | 1.02 ± 0.034
75 | TGCTTTTGGT | 0.988 ± 0.022

Row | Sequence | switch fluorescence ratio
76 | ATTGTTGTAG | 0.985 ± 0.00069
77 | AAGTTAGGTC | 0.969 ± 0.047
78 | TTGGTCAAAA | 1.022 ± 0.0089
79 | AATCGTACAG | 1.07 ± 0.019
80 | ACTATGAGCC | 1.01 ± 0.021
81 | GTTAGTTTTT | 0.986 ± 0.02
82 | AGGTAGGGAA | 0.9928 ± 0.0037
83 | CGTCGGAGGG | 0.977 ± 0.013
84 | TCCATGGGAC | 1.03 ± 0.041
85 | AATGCGTTCG | 0.99211 ± 0.00042
86 | GACATTGGCT | 0.948 ± 0.03
87 | GCTTGAAGGG | 1.01 ± 0.027
88 | GGGTGAAAGC | 1 ± 0.017
89 | TGGTGTGGGT | 0.989 ± 0.014
90 | GGTGGGTTGT | 1.03 ± 0.076
91 | CGTTGGGCTG | 1.02 ± 0.038
92 | GACGTTCGGC | 0.991 ± 0.026
93 | AGCATAAGC | 1.04 ± 0.012
94 | TATGCATATT | 1.04 ± 0.032
95 | GGCGGATCAG | 0.9827 ± 0.0023
96 | AAGTGCTGTG | 0.996 ± 0.029
97 | CATCCACGTA | 1.2 ± 0.083
98 | CGAGTGGATG | 0.994 ± 0.018
99 | CAATATTCTT | 1.02 ± 0.027
100 | TTTTGGGGTA | 0.993 ± 0.036
